# Data taken from publication doi:10.64898/2025.12.30.697132, “Explaining how mutations affect AlphaFold predictions” (bioRxiv, 2025).
# B1: Human XCL1(1-72) (domain or fragment, UniProt P47992 22-93, looked up)
# chain: VGSEVSDKRTCVSLTTQRLPVSRIKTYTITEGSLRAVIFITKRGLKVCADPQATWVRDVVRSMDRKSNTRNN
# modifications: 4-fluorophenylalanine, presumed at F39 (single fluorine atom verified by electrospray mass spectrometry)
# notes: XCL1, human, residues 1-72, lacks the disordered C-terminal tail (residues 73-93); The protein exchanges between a monomeric chemokine fold and a dimeric beta-sheet fold; also called hXCL1(1-72); wildtype XCL1
# Target: the molecule itself
# Assay: 19F NMR; 4-F-Phe labelled hXCL1(1-72) at 100 uM in 20 mM NaPO4, 50 mM NaCl, pH 6.5, 35 °C; populations of the dimer fold and the monomeric chemokine fold
protein,measurement,value
B1,percent of the protein in the dimer fold,77%
